Measured values reported in publication PMC4031664.
pKd: −log10 of the molar value.

Key:
Test in all cases: SPR
[1] = target: N-terminally truncated human PrP90–231 (human) (UniProt P04156)
[2] = target: N-terminally truncated PrP (PrP89–230) (mouse) (UniProt P04925)
[3] = target: N-terminal human PrP fragment (PrP23–145) (human) (UniProt P04156)
[4] = target: full-length PrP (PrP23–231) (mouse) (UniProt P04925)

“Quiescin-sulfhydryl oxidase (from UniProt O00391 30-747) (enzyme)” was tested, and the pKd [1] was 6.11, the pKd [2] was 6.51 and the pKd [3] was 8.44. It also gave a pKd [4] of 8.70.
